Common to all, as to experiment: single-molecule force spectroscopy
Test [1] concerns the target C5a anaphylatoxin chemotactic receptor 1 (C5aR), wild type (human) (UniProt P21730).
The target in test [2] is C5aR D282A mutant (human) (UniProt P21730).
Test [3] addresses C5aR R175V/Y258V double mutant (human) (UniProt P21730).
In test [4] the target is C5aR complexed with the PMX53 antagonist (free PMX53 injected) (human) (UniProt P21730).
Test [5] shares this target. The source holds these as a separate data set.

Read-outs that look alike come from different tables or passages of the source.

Sequence of complement C5a anaphylatoxin (P01031 678-751): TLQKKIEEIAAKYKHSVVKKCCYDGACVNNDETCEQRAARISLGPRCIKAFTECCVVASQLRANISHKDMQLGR
Sequence of C5aR complexed with the PMX53 antagonist (free PMX53 injected) (human) (P21730 whole entry, looked up, one chain of several): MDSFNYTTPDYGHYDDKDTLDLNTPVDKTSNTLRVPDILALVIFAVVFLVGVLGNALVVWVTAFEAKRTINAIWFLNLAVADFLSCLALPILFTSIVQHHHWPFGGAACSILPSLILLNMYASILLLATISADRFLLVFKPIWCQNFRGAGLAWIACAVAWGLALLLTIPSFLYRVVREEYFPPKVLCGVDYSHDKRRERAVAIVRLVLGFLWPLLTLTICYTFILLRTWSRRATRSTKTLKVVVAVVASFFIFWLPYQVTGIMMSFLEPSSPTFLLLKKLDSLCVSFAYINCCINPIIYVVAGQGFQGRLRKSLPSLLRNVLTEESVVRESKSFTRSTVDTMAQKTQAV
Sequence of C5a anaphylatoxin chemotactic receptor 1 (C5aR), wild type (human) (P21730 whole entry): as the sequence (P21730 whole entry, looked up, one chain of several) above
Sequence of C5aR D282A mutant (human) (P21730 whole entry D282A): as the sequence (P21730 whole entry, looked up, one chain of several) above, with D282A counted along it
Sequence of C5aR R175V/Y258V double mutant (human) (P21730 whole entry R175V/Y258V): as the sequence (P21730 whole entry, looked up, one chain of several) above, with R175V, Y258V counted along it

Take “Cys-Gly3-Phe-[{Orn}-Pro-{D-Cha}-Trp-Arg] (PMX53-Gly3-Cys), PMX53 antagonist as tethered to the AFM tip (peptide)”: in test [1], the Kd stood at 4.7 nM and the equilibrium force Feq was 50 pN. The substance further showed a residence time in test [2] of 0.1 ms. Further, the reduction in residence time against C5aR WT in test [3] was 40%.
Regarding C5a des-Arg (ligand), the residence time τ0.5 in test [4] was 0.5 ms.
For “complement C5a anaphylatoxin (from UniProt P01031 678-751) (ligand)”, in test [5], the equilibrium force Feq came to 23 pN. In addition, in test [4], the equilibrium dissociation constant (Kd) stood at 800 mM, the equilibrium force Feq was 23 pN and the residence time τ0.5 is 0.2 ms.

For the origin of these results see doi:10.1101/2020.04.03.024018.
